Source: patent US10640547B2, “Immunotherapy against melanoma and other cancers” (IMMATICS BIOTECHNOLOGIES GMBH, priority 2016, dated 2020)

What follows are substances tested on CD8+ T cells (assay: In vitro immunogenicity: T-cell priming with artificial APCs loaded with peptide/MHC and anti-CD28, pMHC multimer readout). Conditions: Table 10A; HLA class I peptides.
Assay type: cell-based, human
Description: In order to obtain information regarding the immunogenicity of the TUMAPs of the present invention, the inventors performed investigations using an in vitro T-cell priming assay based on repeated stimulations of CD8+ T cells with artificial antigen presenting cells (aAPCs) loaded with peptide/MHC complexes and anti-CD28 antibody.
In order to perform in vitro stimulations by artificial antigen presenting cells loaded with peptide-MHC complex (pMHC) and anti-CD28 antibody, the inventors first isolated CD8+ T cells from fresh HLA-A*02 leukapheresis products via positive selection using CD8 microbeads (Miltenyi Biotec, Bergisch-Gladbach, Germany) of healthy donors obtained from the University clinics Mannheim, Germany, after informed consent.
PBMCs and isolated CD8+ lymphocytes were incubated in T-cell medium (TCM) until use consisting of RPMI-Glutamax (Invitrogen, Karlsruhe, Germany) supplemented with 10% heat inactivated human AB serum (PAN-Biotech, Aidenbach, Germany), 100 U/ml Penicillin/100 μg/ml Streptomycin (Cambrex, Cologne, Germany), 1 mM sodium pyruvate (CC Pro, Oberdorla, Germany), 20 μg/ml Gentamycin (Cambrex). 2.5 ng/ml IL-7 (PromoCell, Heidelberg, Germany) and 10 U/ml IL-2 (Novartis Pharma, Nürnberg, Germany) were also added to the TCM at this step.
Generation of pMHC/anti-CD28 coated beads, T-cell stimulations and readout was performed in a highly defined in vitro system using four different pMHC molecules per stimulation condition and 8 different pMHC molecules per readout condition.
The purified co-stimulatory mouse IgG2a anti human CD28 Ab 9.3 (Jung et al., 1987) was chemically biotinylated using Sulfo-N-hydroxysuccinimidobiotin as recommended by the manufacturer (Perbio, Bonn, Germany). Beads used were 5.6 μm diameter streptavidin coated polystyrene particles (Bangs Laboratories, Illinois, USA).
800.000 beads/200 μl were coated in 96-well plates in the presence of 4×12.5 ng different biotin-pMHC, washed and 600 ng biotin anti-CD28 were added subsequently in a volume of 200 μl. Stimulations were initiated in 96-well plates by co-incubating 1×10^6 CD8+ T cells with 2×10^5 washed coated beads in 200 μl TCM supplemented with 5 ng/ml IL-12 (PromoCell) for 3 days at 37° C. Half of the medium was then exchanged by fresh TCM supplemented with 80 U/ml IL-2 and incubating was continued for 4 days at 37° C. This stimulation cycle was performed for a total of three times. For the pMHC multimer readout using 8 different pMHC molecules per condition, a two-dimensional combinatorial coding approach was used as previously described (Andersen et al., 2012) with minor modifications encompassing coupling to 5 different fluorochromes. Finally, multimeric analyses were performed by staining the cells with Live/dead near IR dye (Invitrogen, Karlsruhe, Germany), CD8-FITC antibody clone SK1 (BD, Heidelberg, Germany) and fluorescent pMHC multimers. For analysis, a BD LSRII SORP cytometer equipped with appropriate lasers and filters was used. Peptide specific cells were calculated as percentage of total CD8+ cells. Evaluation of multimeric analysis was done using the FlowJo software (Tree Star, Oregon, USA). In vitro priming of specific multimer+CD8+ lymphocytes was detected by comparing to negative control stimulations.
In the case of “283 (YTFSGDVQL; listed as Homo sapiens) [compound 283]”, the “Donors (in vitro immunogenicity)” value is reported as “++++ (≥70% = ++++)” and the “Wells (in vitro immunogenicity)” value is reported as “+ (<20% = +)”. With “294 (FLLAEDTKV; listed as Homo sapiens) [compound 294]” the “Donors (in vitro immunogenicity)” value was “++++ (≥70% = ++++)” and the “Wells (in vitro immunogenicity)” value was “++ (20%-49% = ++)”. With “322 (SLHFLILYV; listed as Homo sapiens) [compound 322]” the “Donors (in vitro immunogenicity)” value was “+++ (50%-69% = +++)” and the “Wells (in vitro immunogenicity)” value was “++ (20%-49% = ++)”. In the case of “254 (FLMKNSDLYGA; listed as Homo sapiens) [compound 254]”, the “Donors (in vitro immunogenicity)” value is reported as “++++ (≥70% = ++++)” and the “Wells (in vitro immunogenicity)” value is reported as “+ (<20% = +)”. “264 (KVFDEVIEV; listed as Homo sapiens) [compound 264]” was tested, and the “Donors (in vitro immunogenicity)” value was “+ (<20% = +)” and the “Wells (in vitro immunogenicity)” value was “+ (<20% = +)”. “262 (KLAVALLAA; listed as Homo sapiens) [compound 262]” was tested, and the “Donors (in vitro immunogenicity)” value was “++ (20%-49% = ++)” and the “Wells (in vitro immunogenicity)” value was “++ (20%-49% = ++)”. For “269 (ALNESLVEC; listed as Homo sapiens) [compound 269]”, the “Donors (in vitro immunogenicity)” value was “++++ (≥70% = ++++)” and the “Wells (in vitro immunogenicity)” value was “+ (<20% = +)”. “250 (RVLPPSALQSV; listed as Homo sapiens) [compound 250]” was tested, and the “Donors (in vitro immunogenicity)” value was “+++ (50%-69% = +++)” and the “Wells (in vitro immunogenicity)” value was “+ (<20% = +)”. For “318 (SIIEYLPTL; listed as Homo sapiens) [compound 318]”, the “Donors (in vitro immunogenicity)” value was “++++ (≥70% = ++++)” and the “Wells (in vitro immunogenicity)” value was “+ (<20% = +)”. “243 (ALAGIVTNV; listed as Homo sapiens) [compound 243]” was tested, and the “Donors (in vitro immunogenicity)” value was “++++ (≥70% = ++++)” and the “Wells (in vitro immunogenicity)” value was “+ (<20% = +)”. For “308 (KLLSDPNYGV; listed as Homo sapiens) [compound 308]”, the “Donors (in vitro immunogenicity)” value was “++++ (≥70% = ++++)” and the “Wells (in vitro immunogenicity)” value was “+ (<20% = +)”. With “278 (SLITGQDLLSV; listed as Homo sapiens) [compound 278]” the “Donors (in vitro immunogenicity)” value was “++++ (≥70% = ++++)” and the “Wells (in vitro immunogenicity)” value was “+ (<20% = +)”. In the case of “267 (LLTDNVVKL; listed as Homo sapiens) [compound 267]”, the “Donors (in vitro immunogenicity)” value is reported as “++++ (≥70% = ++++)” and the “Wells (in vitro immunogenicity)” value is reported as “+ (<20% = +)”.

Each substance was assayed against HLA-A*02:01 (Homo sapiens, UniProt P04439, D140Y/D185E/D98H/E176V/E277Q/G131W/G231S/I119V/I121R/I166T/I218V/L300P/L318F/N151K/N90K/P208A/P217A/Q86G/Q94H/R138H/R169H/T345S) (assay: MHC binding assay (UV-ligand exchange, β2m ELISA)). Conditions: MHC class I binding score; binding to HLA-A*02:01 ranged by peptide exchange yield (UV-ligand exchange, β2m ELISA).
Summary of the method: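 Exchange yield, UV-ligand exchange: 100-fold diluted samples on streptavidin plates, 1 h at 37 °C; HRP anti-β2m 1 h at 37 °C; TMB read at 450 nm.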
With “198 (EVVDKINQV; listed as Homo sapiens) [compound 198]” the Peptide exchange was “+ (>10% = +)”. For “136 (FAYDGKDYIAL; listed as Homo sapiens) [compound 136]”, the Peptide exchange was “+++ (>50 = +++)”. For “89 (ILDNSPAFL; listed as Homo sapiens) [compound 89]”, the Peptide exchange was “+++ (>50 = +++)”. “99 (NLPSELPQL; listed as Homo sapiens) [compound 99]” was tested, and the Peptide exchange was “+++ (>50 = +++)”. For “29 (ILDDVAMVL; listed as Homo sapiens) [compound 29]”, the Peptide exchange was “+++ (>50 = +++)”. With “125 (YLFAFLNHL; listed as Homo sapiens) [compound 125]” the Peptide exchange was “++++ (>75% = ++++)”. In the case of “137 (ILPSNLLTV; listed as Homo sapiens) [compound 137]”, the Peptide exchange is reported as “+++ (>50 = +++)”. “64 (SLGPIMLTKI; listed as Homo sapiens) [compound 64]” was tested, and the Peptide exchange was “++ (>20% = ++)”. With “78 (ALKDLVNLI; listed as Homo sapiens) [compound 78]” the Peptide exchange was “++++ (>75% = ++++)”. With “217 (NMMSGISSV; listed as Homo sapiens) [compound 217]” the Peptide exchange was “+++ (>50 = +++)”. “38 (KLGFGTGVNVYL; listed as Homo sapiens) [compound 38]” was tested, and the Peptide exchange was “++++ (>75% = ++++)”. With “97 (NLDATVTAL; listed as Homo sapiens) [compound 97]” the Peptide exchange was “+++ (>50 = +++)”. In the case of “76 (QIDSIHLLL; listed as Homo sapiens) [compound 76]”, the Peptide exchange is reported as “+++ (>50 = +++)”. With “206 (LLYEDIPDKV; listed as Homo sapiens) [compound 206]” the Peptide exchange was “+++ (>50 = +++)”. For “148 (TLKDIVQTV; listed as Homo sapiens) [compound 148]”, the Peptide exchange was “+++ (>50 = +++)”. For “202 (RVAFKINSV; listed as Homo sapiens) [compound 202]”, the Peptide exchange was “+++ (>50 = +++)”. In the case of “60 (ILPEAQDYFL; listed as Homo sapiens) [compound 60]”, the Peptide exchange is reported as “++++ (>75% = ++++)”. In the case of “56 (ILDELVKSL; listed as Homo sapiens) [compound 56]”, the Peptide exchange is reported as “+++ (>50 = +++)”. With “65 (TTLGGFAKV; listed as Homo sapiens) [compound 65]” the Peptide exchange was “++ (>20% = ++)”. With “220 (SAAEPTPAV; listed as Homo sapiens) [compound 220]” the Peptide exchange was “+++ (>50 = +++)”. In the case of “197 (ALDSGFNSV; listed as Homo sapiens) [compound 197]”, the Peptide exchange is reported as “++++ (>75% = ++++)”. In the case of “72 (TLLEVDAIVNA; listed as Homo sapiens) [compound 72]”, the Peptide exchange is reported as “++++ (>75% = ++++)”. “93 (LLAKAVQNV; listed as Homo sapiens) [compound 93]” was tested, and the Peptide exchange was “+++ (>50 = +++)”. For “62 (LLDTTQKYL; listed as Homo sapiens) [compound 62]”, the Peptide exchange was “++++ (>75% = ++++)”. With “51 (LIDKIIEYL; listed as Homo sapiens) [compound 51]” the Peptide exchange was “++ (>20% = ++)”. For “59 (IIDDVMKEL; listed as Homo sapiens) [compound 59]”, the Peptide exchange was “++ (>20% = ++)”. “154 (TLGTATFTV; listed as Homo sapiens) [compound 154]” was tested, and the Peptide exchange was “++++ (>75% = ++++)”. With “138 (YLDKTFYNL; listed as Homo sapiens) [compound 138]” the Peptide exchange was “+++ (>50 = +++)”. “145 (TLPNIYVTL; listed as Homo sapiens) [compound 145]” was tested, and the Peptide exchange was “+++ (>50 = +++)”. In the case of “158 (KLIPSIIVL; listed as Homo sapiens) [compound 158]”, the Peptide exchange is reported as “+++ (>50 = +++)”. With “83 (GLDKVITVL; listed as Homo sapiens) [compound 83]” the Peptide exchange was “+++ (>50 = +++)”. For “214 (VLMEMSYRL; listed as Homo sapiens) [compound 214]”, the Peptide exchange was “+++ (>50 = +++)”. “139 (AVDATVNQV; listed as Homo sapiens) [compound 139]” was tested, and the Peptide exchange was “+++ (>50 = +++)”. “71 (SLDEVAVSL; listed as Homo sapiens) [compound 71]” was tested, and the Peptide exchange was “++++ (>75% = ++++)”. In the case of “226 (VLNEYFHNV; listed as Homo sapiens) [compound 226]”, the Peptide exchange is reported as “++++ (>75% = ++++)”. With “98 (NLPNTNSILGV; listed as Homo sapiens) [compound 98]” the Peptide exchange was “+++ (>50 = +++)”. With “147 (ILDDQTNKL; listed as Homo sapiens) [compound 147]” the Peptide exchange was “+++ (>50 = +++)”. In the case of “153 (RLDEVSREL; listed as Homo sapiens) [compound 153]”, the Peptide exchange is reported as “+++ (>50 = +++)”. In the case of “49 (ALLSQDFEL; listed as Homo sapiens) [compound 49]”, the Peptide exchange is reported as “++++ (>75% = ++++)”. In the case of “196 (ALEPIDITV; listed as Homo sapiens) [compound 196]”, the Peptide exchange is reported as “+++ (>50 = +++)”. For “228 (FLNLFNHTL; listed as Homo sapiens) [compound 228]”, the Peptide exchange was “++++ (>75% = ++++)”. For “201 (SLIDRTIKM; listed as Homo sapiens) [compound 201]”, the Peptide exchange was “+++ (>50 = +++)”.
